Assay [1] deals with T1, Plasma-derived VWF (pdVWF, Alphanate) (human, UniProt P04275 764-2813).
T1 construct: Commercial multimeric VWF concentrate; also called plasma-purified VWF; full-length VWF
As to the kind of experiment: method not stated; monomeric recombinant VHH81; plasma-derived VWF.

Another assay deals with T2, purified VWF (UniProt P04275 764-2813, limits assumed).
T2 construct: It may be a recombinant fragment
Nature of the assay: method not stated; monomeric recombinant VHH81; purified VWF.

Assay [2] has as its target T1, Plasma-derived VWF (pdVWF, Alphanate). As to the kind of experiment: ELISA: binding of pdVWF (0.1 µg/ml) to immobilised LBD-WT induced by a titration of the nanobody; EC50 of nanobody-induced binding of pdVWF to immobilized LBD.
Assay [3] has as its target plasma VWF (normal pooled human plasma) (human, UniProt P04275 764-2813). Nature of the assay: cell-based or functional assay.
Assay [4] addresses T3, recombinant AIM-A1 protein (human VWF residues 1238-1493) (human, multiple O-linked sialylated core 1 glycans (produced from transfected HEK293F cells)).
T3 construct: Any tags are as in that entry; also called glycosylated AIM-A1; human VWF AIM-A1 protein
Nature of the assay: method not given; nanobody from E. coli on AIM-A1.

In assay [5] the target is T1, Plasma-derived VWF (pdVWF, Alphanate). As to the kind of experiment: ELISA, plate coated with 100 nM nanobody, pdVWF titrated; apparent affinity, hyperbolic fit; apparent Kd of direct binding to pdVWF. Background: An ELISA detects its analyte on a solid surface through an enzyme-linked reagent.
The target in assay [6] is T3, recombinant AIM-A1 protein (human VWF …). As to the kind of experiment: biolayer interferometry. Background: BLI is a label-free optical method that tracks binding on a fibre tip over time.
The target is the same in assay [7]. Nature of the assay: apparent affinity, method not named; glycosylated AIM-A1 from HEK293F cells; glycosylated AIM-A1 from HEK293F cells; apparent affinity.

The record followed here is patent publication US20250298041A1 (published 2025).

What is called EC50 is the concentration at which the effect is half-maximal. Low values mean higher potency in that assay, high ones lower potency in that assay.

B1: VHH81 (VHH)
VHH: EVQLVESGGGLVQPGGSLRLSCAASGRITSYNPMGWFRQAPGKGRELVAAISRTGGSTYYPDSVEGRFTISRDNAKRMVYLQMNSLRAEDTAVYYCAAAGVRAEDGRVRTLPSEYTFWGQGTQVTVSS
notes: Monomeric recombinant VHH81 produced in bacteria; The tags are not included here; also called PMP12A2h1; mono ISVD of caplacizumab
In the case of B1, the Kd (in assay [1]; with purified VWF) was approximately 20 nM each time.

B2: Cd1C4 (VHH)
VHH: QVQLVESGGGLVQTGGSLTLSCAASGRAFSQYSVGWFRQAPGKERTFVAAINWSGTKAYYAGSVKGRSTISRDRAKTTVFLQMNSLKPEDTAVYYCATHRGLYYEGTNYSQKDEYDYWGQGTQVTVSS
notes: Llama nanobody produced in E. coli with a C-terminal His tag; also called 6C4
Turning to B2, in assay [2], a half-maximal response (EC50) required 163 nM. Further, the “EC50 of platelet aggregation in stirred human platelet rich plasma” value (“EC50 of platelet aggregation” below) in assay [3] was approximately 167 nM. Moreover, the Kd in assay [4] amounted to 120 nM; in assay [5], 5.4 nM.

B3: Cd1C11 (VHH)
VHH: QVQLVESGGGLVQTGGSLRLSCAASGRTVSHYSVGWFRQAPGKERVFVGAINWSGDKAYYVGSVKGRSTIRRDNAKNTVYLQMNSLKPEDTAVYYCATRRGLYYEGTDYSRKDEYDYWGQGTQVTVSS
notes: Llama nanobody produced in E. coli with a C-terminal His tag; also called 6C11
Molecule B3 gave an EC50 in assay [2] of 215 nM. Also, the Kd in assay [6] worked out at 29 nM; in assay [4] it was 13.5 nM; in assay [5], 3.68 nM. Also, the “EC50 of extent of platelet aggregation as a function of nanobody concentration” value in assay [3] was approximately 100 nM. In addition, the “EC50 of platelet aggregation” value in assay [3] was approximately 100 nM.

B4: Cd1D12 (VHH)
VHH: QVQLVESGGGLVQPGGSLRLSCAASGFTLDDYAIGWFRQVPGKERTFVGAINWSGTKAYYAGSVKGRSTVRRDNAKNTVYLQMNSLKPEDTAVYYCATHRGLHYGGINYSQKDEYDYWGQGTQVTVSS
notes: Llama nanobody produced in E. coli with a C-terminal His tag; also called 6D12
As for B4, the Kd was approximately 10 nM in assay [7], 76 nM in assay [6], 31 nM in assay [4] and 1.12 nM in assay [5]. Also, a half-maximal response in assay [2] (EC50) required 42 nM. Further, the “EC50 of extent of platelet aggregation as a function of nanobody concentration” value in assay [3] is approximately 100 nM. In addition, the “EC50 of platelet aggregation” value in assay [3] is approximately 57 nM.
